# US20240270857A1 (CHIA TAI TIANQING PHARMACEUTICAL GROUP, published 2024)
# Read-outs that look alike come from different tables or passages of the source.
# B1: BI655130 (antibody, human IgG1, kappa, L234A L235A)
# heavy: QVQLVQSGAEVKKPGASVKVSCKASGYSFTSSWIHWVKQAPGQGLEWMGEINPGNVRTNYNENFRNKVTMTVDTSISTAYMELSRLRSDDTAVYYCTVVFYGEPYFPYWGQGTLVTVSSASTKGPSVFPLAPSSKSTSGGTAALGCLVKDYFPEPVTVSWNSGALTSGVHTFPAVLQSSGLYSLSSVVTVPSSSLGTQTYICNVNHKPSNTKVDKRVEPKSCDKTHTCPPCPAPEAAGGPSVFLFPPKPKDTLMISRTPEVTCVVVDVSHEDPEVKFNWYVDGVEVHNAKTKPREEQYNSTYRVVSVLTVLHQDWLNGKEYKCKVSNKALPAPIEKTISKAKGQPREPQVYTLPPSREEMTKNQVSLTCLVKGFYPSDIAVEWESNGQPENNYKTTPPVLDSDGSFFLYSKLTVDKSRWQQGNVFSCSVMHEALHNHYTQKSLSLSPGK
# light: QIVLTQSPGTLSLSPGERATMTCTASSSVSSSYFHWYQQKPGQAPRLWIYRTSRLASGVPDRFSGSGSGTDFTLTISRLEPEDAATYYCHQFHRSPLTFGAGTKLEIKRTVAAPSVFIFPPSDEQLKSGTASVVCLLNNFYPREAKVQWKVDNALQSGNSQESVTEQDSKDSTYSLSSTLTLSKADYEKHKVYACEVTHQGLSSPVTKSFNRGEC
# notes: also called Spesolimab
# B2: chimeric 72C1 antibody (antibody, human IgG4 S228P, kappa)
# heavy: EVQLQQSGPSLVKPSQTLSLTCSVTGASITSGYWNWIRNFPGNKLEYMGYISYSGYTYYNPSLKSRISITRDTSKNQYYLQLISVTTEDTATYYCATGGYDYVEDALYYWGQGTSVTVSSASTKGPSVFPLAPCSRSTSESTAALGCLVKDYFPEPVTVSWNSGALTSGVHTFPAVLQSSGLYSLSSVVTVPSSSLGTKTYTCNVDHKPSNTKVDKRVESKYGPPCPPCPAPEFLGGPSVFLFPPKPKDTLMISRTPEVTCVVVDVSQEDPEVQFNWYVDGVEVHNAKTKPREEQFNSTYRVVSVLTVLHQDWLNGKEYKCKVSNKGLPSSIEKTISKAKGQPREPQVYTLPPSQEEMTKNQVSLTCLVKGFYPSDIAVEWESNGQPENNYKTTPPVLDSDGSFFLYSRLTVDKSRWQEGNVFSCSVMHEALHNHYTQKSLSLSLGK
# light: EILLTQSPAIMSATLGEKVTMSCRASSNVRYMYWYQLKSGASPKLWIYLTSNLASGVPARFSGSGSGTSYSLTISSVEAEDAATYFCQQFTTSPYTFGGGTKLEIKRTVAAPSVFIFPPSDEQLKSGTASVVCLLNNFYPREAKVQWKVDNALQSGNSQESVTEQDSKDSTYSLSSTLTLSKADYEKHKVYACEVTHQGLSSPVTKSFNRGEC
# notes: Mouse variable regions on human IgG4 / kappa; also called xi72C1
# B3: chimeric 84C4 antibody (antibody, human IgG4 S228P, kappa)
# heavy: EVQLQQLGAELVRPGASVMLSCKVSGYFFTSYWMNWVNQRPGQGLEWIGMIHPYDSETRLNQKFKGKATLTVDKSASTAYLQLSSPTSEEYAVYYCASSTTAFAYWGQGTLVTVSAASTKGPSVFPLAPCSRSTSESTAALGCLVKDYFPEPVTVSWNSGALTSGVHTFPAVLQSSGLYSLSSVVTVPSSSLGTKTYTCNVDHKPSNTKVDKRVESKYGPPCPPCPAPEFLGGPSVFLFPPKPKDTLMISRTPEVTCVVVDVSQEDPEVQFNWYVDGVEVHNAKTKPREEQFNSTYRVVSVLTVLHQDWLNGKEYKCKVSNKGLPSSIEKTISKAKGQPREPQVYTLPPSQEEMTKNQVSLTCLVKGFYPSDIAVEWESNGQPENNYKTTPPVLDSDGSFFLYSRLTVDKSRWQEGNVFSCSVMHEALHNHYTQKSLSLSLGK
# light: DILMTQSPSSLSASLGERVSLTCRASQDIGNALNWLQQAPDGTIKRLIYATSSLDPGVPKRFSGSRSGSDYSLTISSLASEDFVYYYCLQYASSPYTFGGGTKLEIKRTVAAPSVFIFPPSDEQLKSGTASVVCLLNNFYPREAKVQWKVDNALQSGNSQESVTEQDSKDSTYSLSSTLTLSKADYEKHKVYACEVTHQGLSSPVTKSFNRGEC
# notes: Mouse variable regions on human IgG4 / kappa; also called xi84C4
# Key:
# [1] = target: T1, human IL-36R overexpressed on 293T-hIL36R-NFκB cells (human, UniProt Q9HB29 20-575); experiment: cell-based or functional assay
# T1 sequence: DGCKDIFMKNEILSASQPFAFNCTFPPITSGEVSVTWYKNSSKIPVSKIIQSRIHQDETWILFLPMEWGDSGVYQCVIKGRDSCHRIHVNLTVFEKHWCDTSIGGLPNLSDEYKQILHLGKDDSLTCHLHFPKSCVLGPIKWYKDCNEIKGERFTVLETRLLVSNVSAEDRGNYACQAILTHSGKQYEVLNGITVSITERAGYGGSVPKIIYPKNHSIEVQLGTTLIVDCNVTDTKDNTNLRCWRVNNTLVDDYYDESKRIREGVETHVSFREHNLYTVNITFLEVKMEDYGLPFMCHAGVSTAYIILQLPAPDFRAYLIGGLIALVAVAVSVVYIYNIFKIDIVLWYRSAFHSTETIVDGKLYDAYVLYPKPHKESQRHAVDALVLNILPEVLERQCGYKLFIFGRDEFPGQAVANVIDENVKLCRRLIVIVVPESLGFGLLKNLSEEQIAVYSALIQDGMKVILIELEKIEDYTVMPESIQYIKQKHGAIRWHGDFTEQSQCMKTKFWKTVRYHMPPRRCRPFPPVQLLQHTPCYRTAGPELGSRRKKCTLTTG
# [2] = target: T1, human IL-36R overexpressed on …; experiment: cell-based or functional assay; remark: listed apart in the source
# [3] = target: T1, human IL-36R overexpressed on …; experiment: cell-based or functional assay; remark: listed apart in the source
# [4] = target: T1, human IL-36R overexpressed on …; experiment: cell-based or functional assay; remark: listed apart in the source
# [5] = target: T1, human IL-36R overexpressed on …; experiment: cell-based or functional assay; remark: listed apart in the source
# [6] = target: T2, cynomolgus IL-36R overexpressed on 293T-CynoIL36R-NFκB cells (cynomolgus monkey); experiment: cell-based or functional assay
# T2 chain: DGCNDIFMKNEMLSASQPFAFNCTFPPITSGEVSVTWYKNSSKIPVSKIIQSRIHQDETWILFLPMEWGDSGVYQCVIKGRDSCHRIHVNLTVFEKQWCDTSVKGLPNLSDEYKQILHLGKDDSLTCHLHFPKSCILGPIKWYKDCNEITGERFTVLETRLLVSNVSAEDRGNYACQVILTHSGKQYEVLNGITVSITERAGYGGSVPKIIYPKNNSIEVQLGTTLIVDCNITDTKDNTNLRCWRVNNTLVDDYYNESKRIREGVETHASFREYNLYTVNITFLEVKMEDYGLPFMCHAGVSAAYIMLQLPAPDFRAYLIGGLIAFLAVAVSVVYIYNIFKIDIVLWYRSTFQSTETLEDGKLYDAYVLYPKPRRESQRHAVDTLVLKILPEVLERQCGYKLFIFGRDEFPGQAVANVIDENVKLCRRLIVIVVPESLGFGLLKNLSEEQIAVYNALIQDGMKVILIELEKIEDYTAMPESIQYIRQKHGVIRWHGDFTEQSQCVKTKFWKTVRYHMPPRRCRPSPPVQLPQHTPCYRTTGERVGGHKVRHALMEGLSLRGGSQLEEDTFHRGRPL
# [7] = target: T2, cynomolgus IL-36R overexpressed on …; experiment: cell-based or functional assay
# [8] = target: T3, IL-36R naturally expressed on OVCAR8 cells and on normal human epidermal keratinocytes (NHK cells) (human, UniProt Q9HB29 20-575); experiment: cell-based or functional assay
# T3 sequence (looked up): T1 sequence
# [9] = target: T3, IL-36R naturally expressed on OVCAR8 …; experiment: cell-based or functional assay; remark: listed apart in the source
# [10] = target: T3, IL-36R naturally expressed on OVCAR8 …; experiment: cell-based or functional assay; remark: listed apart in the source
# [11] = target: T3, IL-36R naturally expressed on OVCAR8 …; experiment: cell-based or functional assay; remark: listed apart in the source
# [12] = target: T3, IL-36R naturally expressed on OVCAR8 …; experiment: cell-based or functional assay; remark: listed apart in the source
# [13] = target: T3, IL-36R naturally expressed on OVCAR8 …; experiment: cell-based or functional assay; remark: listed apart in the source
# [14] = target: T1, human IL-36R overexpressed on …; experiment: FACS on 293T-hIL36R-NFκB cells, ratio of MFI to background MFI
# Protocol: (§1) After the cells was washed with PBS, the cells were resuspended with 100 μL of PBS and then the fluorescence signal was detected using a flow cytometer (BD, Accuri C6). […] The ratio was the ratio of mean fluorescence intensity (MFI) of the experimental group/the background MFI, and the resulting data were analyzed using GraphPad Prism.
# [15] = target: T2, cynomolgus IL-36R overexpressed on …; experiment: FACS on 293T-CynoIL36R-NFκB cells, ratio of MFI to background MFI
# Protocol: as §1
Binder,"IC50; NFκB-luciferase reporter in 293T-hIL36R-NFκB cells stimulated with hIL36α, inhibition rate % [1]","IC50; NFκB-luciferase reporter in 293T-hIL36R-NFκB cells stimulated with hIL36α, inhibition rate % [2]","IC50; NFκB-luciferase reporter in 293T-hIL36R-NFκB cells stimulated with hIL36β, inhibition rate % [3]","IC50; NFκB-luciferase reporter in 293T-hIL36R-NFκB cells stimulated with hIL36β, inhibition rate % [4]","IC50; NFκB-luciferase reporter in 293T-hIL36R-NFκB cells stimulated with hIL36γ, inhibition rate % [5]","IC50; NFκB-luciferase reporter in 293T-CynoIL36R-NFκB cells stimulated with hIL36α, inhibition rate % [6]","IC50; NFκB-luciferase reporter in 293T-CynoIL36R-NFκB cells stimulated with hIL36β, inhibition rate % [7]","IC50; IL-8 production of OVCAR8 cells stimulated with hIL36α, inhibition rate % [8]","IC50; IL-8 production of OVCAR8 cells stimulated with hIL36β, inhibition rate % [9]","IC50; IL-8 production of OVCAR8 cells stimulated with hIL36γ, inhibition rate % [10]","IC50; IL-8 production of OVCAR8 cells stimulated with hIL36γ, inhibition rate % [11]","IC50; IL-8 production of NHK cells stimulated with hIL36α, inhibition rate % [12]","IC50; IL-8 production of NHK cells stimulated with hIL36γ, inhibition rate % [13]",EC50 [14],EC50 [15]
B1,3.62 nM,6.09 nM,5.02 nM,2.45 nM,4.74 nM,27.7 nM,56.3 nM,0.0799 nM,0.0861 nM,0.0405 nM,0.0592 nM,0.214 nM,0.0387 nM,7.02 nM,9.64 nM
B2,8 nM,,7.51 nM,,10.5 nM,3.32 nM,3.6 nM,0.113 nM,,0.0555 nM,,,0.0486 nM,6.47 nM,8.96 nM
B3,,3.25 nM,,2.79 nM,,,,,0.113 nM,,0.0181 nM,1.02 nM,0.125 nM,,36.6 nM
